Patent publication US20020111309A1

Columns and labels:
[1] = target: Aβ (1-40), beta-amyloid protein of Alzheimer's disease (UniProt P05067); test: cell-based or functional assay
[2] = target: Aβ (1-40), beta-amyloid protein of Alzheimer's disease (UniProt P05067); test: solid phase binding immunoassay, Aβ (1-40) on microtiter wells, laminin in solution, anti-laminin detection, one-site fit

Sequence of Aβ (1-40), beta-amyloid protein of Alzheimer's disease (P05067 672-711 limits assumed): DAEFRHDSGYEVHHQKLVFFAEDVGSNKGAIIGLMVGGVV

Thioflavin T fluorescence (Aβ (1-40) amyloid fibril formation), 25 µM Aβ with 100 nM laminin, 1 week [1]: 27.1 fold lower | Thioflavin T fluorescence (Aβ (1-40) amyloid fibril formation), 25 µM Aβ with 100 nM laminin, 1 hour [1]: 2.9 fold lower | Thioflavin T fluorescence (Aβ (1-40) amyloid fibril formation), 25 µM Aβ with 100 nM laminin, 1 day [1]: 4.6 fold lower | Thioflavin T fluorescence (Aβ (1-40) amyloid fibril formation), 25 µM Aβ with 100 nM laminin, 3 days [1]: 30.6 fold lower | Thioflavin T fluorescence (Aβ fibrillogenesis), second study, 25 µM Aβ with 100 nM laminin, 1 week (fold decrease) [1]: 21 | Thioflavin T fluorescence (Aβ fibrillogenesis), second study, 25 µM Aβ with 100 nM laminin, 1 day (fold decrease) [1]: 9 | Thioflavin T fluorescence (Aβ fibrillogenesis), second study, 25 µM Aβ with 100 nM laminin, 3 days (fold decrease) [1]: 9 | dissolution of pre-formed Aβ amyloid fibrils (Thioflavin T fluorometry, 4 days), 16 nM laminin [1]: 25% | dissolution of pre-formed Aβ amyloid fibrils (Thioflavin T fluorometry, 4 days), 31 nM laminin [1]: 28% | dissolution of pre-formed Aβ amyloid fibrils (Thioflavin T fluorometry, 4 days), 63 nM laminin [1]: 39% | dissolution of pre-formed Aβ amyloid fibrils (Thioflavin T fluorometry, 4 days), 125 nM laminin [1]: 41% | Kd [2]: 2.7 nM
Substance: Engelbreth-Holm-Swarm (EHS) mouse tumor laminin, P02468 34-1607
